According to PMC10397247:
Blank lines part the entries; values can stand above or below the binder they belong to.

Legend:
Assay in all cases: two-hybrid library CCNG1;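 also: natural log of median RNA to DNA barcode read ratio; higher means stronger binding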
P7mS = target: T1, P7mS
T1 chain: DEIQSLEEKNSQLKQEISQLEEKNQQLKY

P9mS = target: T2, P9mS
T2 chain: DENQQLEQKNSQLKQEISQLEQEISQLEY

P8mS = target: T3, P8mS
T3 chain: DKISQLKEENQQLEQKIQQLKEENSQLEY

P5mS = target: T4, P5mS
T4 chain: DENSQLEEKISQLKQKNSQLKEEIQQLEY

P6mS = target: T5, P6mS
T5 chain: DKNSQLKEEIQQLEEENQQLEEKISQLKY

P4mS = target: T6, P4mS
T6 chain: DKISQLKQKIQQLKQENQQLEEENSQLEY

4H1985-bN = target: T7, 4H1985-bN
T7 chain: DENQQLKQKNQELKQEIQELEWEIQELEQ

4H1710-bN = target: T8, 4H1710-bN
T8 chain: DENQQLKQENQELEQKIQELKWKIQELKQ

4H626-bN = target: T9, 4H626-bN
T9 chain: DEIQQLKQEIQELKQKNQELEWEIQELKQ

4H1373-bN = target: T10, 4H1373-bN
T10 chain: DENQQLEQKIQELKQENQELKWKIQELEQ

4H3817-bN = target: T11, 4H3817-bN
T11 chain: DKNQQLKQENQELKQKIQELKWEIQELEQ

4H906-bN = target: T12, 4H906-bN
T12 chain: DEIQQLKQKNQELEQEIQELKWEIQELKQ

4H2697-bH = target: T13, 4H2697-bH
T13 chain: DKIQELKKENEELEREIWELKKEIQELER

4H3175-bN = target: T14, 4H3175-bN
T14 chain: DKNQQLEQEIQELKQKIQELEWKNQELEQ

4H3628-bN = target: T15, 4H3628-bN
T15 chain: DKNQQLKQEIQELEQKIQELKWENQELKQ

4H3277-bN = target: T16, 4H3277-bN
T16 chain: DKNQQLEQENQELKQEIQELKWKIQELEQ

4H72-bN = target: T17, 4H72-bN
T17 chain: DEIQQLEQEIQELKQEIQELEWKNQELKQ

4H3858-bN = target: T18, 4H3858-bN
T18 chain: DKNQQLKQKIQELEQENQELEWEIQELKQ

4H3462-bN = target: T19, 4H3462-bN
T19 chain: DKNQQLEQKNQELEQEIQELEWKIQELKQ

4H3974-bN = target: T20, 4H3974-bN
T20 chain: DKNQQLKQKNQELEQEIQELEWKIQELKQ

4H3298-bN = target: T21, 4H3298-bN
T21 chain: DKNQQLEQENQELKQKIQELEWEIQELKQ

4H1899-bN = target: T22, 4H1899-bN
T22 chain: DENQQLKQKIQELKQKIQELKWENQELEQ

4H1449-bN = target: T23, 4H1449-bN
T23 chain: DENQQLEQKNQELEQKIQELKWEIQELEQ

4H3497-bN = target: T24, 4H3497-bN
T24 chain: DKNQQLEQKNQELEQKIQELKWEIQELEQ

4H3926-bN = target: T25, 4H3926-bN
T25 chain: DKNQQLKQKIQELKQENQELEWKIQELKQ

4H1544-bN = target: T26, 4H1544-bN
T26 chain: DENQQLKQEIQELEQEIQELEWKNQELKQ

4H3613-bN = target: T27, 4H3613-bN
T27 chain: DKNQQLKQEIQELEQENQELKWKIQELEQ

4H850-bN = target: T28, 4H850-bN
T28 chain: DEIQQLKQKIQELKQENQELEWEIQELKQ

4H570-bN = target: T29, 4H570-bN
T29 chain: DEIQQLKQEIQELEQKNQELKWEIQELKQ

4H591-bN = target: T30, 4H591-bN
T30 chain: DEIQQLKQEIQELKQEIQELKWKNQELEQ

4H338-bH = target: T31, 4H338-bH
T31 chain: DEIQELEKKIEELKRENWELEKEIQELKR

4H3162-bN = target: T32, 4H3162-bN
T32 chain: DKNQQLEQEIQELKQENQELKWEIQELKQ

interaction score (P7mS): -1.14
interaction score (P9mS): -1.28
interaction score (P8mS): -1.85
interaction score (P5mS): -1.04
interaction score (P6mS): -1.48
interaction score (P4mS): -1.66
Binder: DKISQLKQKIQQLKQENQQLEEENSQLEY [P4mS]

interaction score (4H1985-bN): -1.63
interaction score (4H1710-bN): -0.292
interaction score (4H626-bN): -0.375
interaction score (4H1373-bN): -0.169
interaction score (4H3817-bN): -0.749
interaction score (4H906-bN): -1.37
interaction score (4H2697-bH): -2.86
interaction score (4H3175-bN): -0.941
interaction score (4H3628-bN): -0.846
interaction score (4H3277-bN): -1.18
interaction score (4H72-bN): -2.48
interaction score (4H3858-bN): 0.337
interaction score (4H3462-bN): -0.946
interaction score (4H3974-bN): -0.592
interaction score (4H3298-bN): -0.763
interaction score (4H1899-bN): -1.32
interaction score (4H1449-bN): -0.869
interaction score (4H3497-bN): -1.41
interaction score (4H3926-bN): 1.21
interaction score (4H1544-bN): -0.522
interaction score (4H3613-bN): 1.13
interaction score (4H850-bN): -0.952
interaction score (4H570-bN): -1.29
interaction score (4H591-bN): -0.619
interaction score (4H338-bH): -0.758
interaction score (4H3162-bN): -0.675
Binder: DENQQLEQKIQELKQENQELKWKIQELEQ [4H1373-bN]
